Measured values as given in patent US20260097113A1 (Pfizer, published 2026).

Columns and labels:
[1] = target: RSV A + RSV B bivalent composition (RSV subtype A; RSV subtype B); assay: AM14 Fab titration by SEC; Target cycle; 3 M 25°C
[2] = target: RSV A + RSV B bivalent composition (RSV subtype A; RSV subtype B); assay: AM14 Fab titration by SEC; Low-Fast cycle; 3 M 2-8°C
[3] = target: RSV A + RSV B bivalent composition (RSV subtype A; RSV subtype B); assay: AM14 Fab titration by SEC; High-Slow 1 cycle; 3 M 40°C
[4] = target: RSV A + RSV B bivalent composition (RSV subtype A; RSV subtype B); assay: AM14 Fab titration by SEC; Low-Fast cycle; 1 M 25°C (second value)
[5] = target: RSV A + RSV B bivalent composition (RSV subtype A; RSV subtype B); assay: AM14 Fab titration by SEC; Low-Fast cycle; 3 M 2-8°C (second value)
[6] = target: RSV A + RSV B bivalent composition (RSV subtype A; RSV subtype B); assay: AM14 Fab titration by SEC; composition of Table 14; pre-lyo composition
[7] = target: T1, RSV F protein of subtype A comprising a polypeptide of SEQ ID NO: 1 and a polypeptide of SEQ ID NO: 2 (RSV subtype A, UniProt P11209 137-513; P03420 26-109); assay: AM14 ELISA; F16 (pH 6, 0 mM NaCl, 0% sucrose); T0
T1 construct: Stabilized prefusion F trimer made of three F2-F1 heterodimers; Produced recombinantly in CHO cells; also called RSV A; RSVA
T1 chain 1: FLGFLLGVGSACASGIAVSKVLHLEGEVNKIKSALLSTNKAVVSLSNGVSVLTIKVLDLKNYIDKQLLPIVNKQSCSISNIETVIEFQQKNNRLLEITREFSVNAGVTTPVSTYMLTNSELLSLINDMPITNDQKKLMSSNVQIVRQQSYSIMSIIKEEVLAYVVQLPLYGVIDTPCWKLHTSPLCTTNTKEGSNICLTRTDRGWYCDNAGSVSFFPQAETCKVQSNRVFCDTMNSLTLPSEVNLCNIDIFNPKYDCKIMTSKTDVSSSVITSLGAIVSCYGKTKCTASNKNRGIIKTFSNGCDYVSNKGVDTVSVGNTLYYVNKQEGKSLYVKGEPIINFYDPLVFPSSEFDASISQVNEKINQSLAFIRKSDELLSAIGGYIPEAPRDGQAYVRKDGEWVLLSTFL
T1 chain 2: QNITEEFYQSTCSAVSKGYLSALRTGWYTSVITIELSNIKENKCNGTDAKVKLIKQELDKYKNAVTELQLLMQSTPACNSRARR

[8] = target: T1, RSV F protein of subtype A comprising a …; assay: AM14 ELISA; F16 (pH 6, 0 mM NaCl, 0% sucrose); 1 wk 5°C
[9] = target: T1, RSV F protein of subtype A comprising a …; assay: AM14 ELISA; F6 (pH 7, 0 mM NaCl, 4.5% sucrose); 1 wk 5°C
[10] = target: T1, RSV F protein of subtype A comprising a …; assay: AM14 ELISA; F5 (pH 6, 100 mM NaCl, 9.0% sucrose); 2 wk 5°C
[11] = target: T1, RSV F protein of subtype A comprising a …; assay: AM14 ELISA; F9 (pH 8, 50 mM NaCl, 4.5% sucrose); 2 wk 25°C
[12] = target: T1, RSV F protein of subtype A comprising a …; assay: AM14 ELISA; F11 (pH 7, 50 mM NaCl, 9.0% sucrose); 2 wk 25°C
[13] = target: T1, RSV F protein of subtype A comprising a …; assay: AM14 ELISA; F13 (pH 7, 100 mM NaCl, 4.5% sucrose); 1 wk 25°C
[14] = target: T1, RSV F protein of subtype A comprising a …; assay: AM14 ELISA; F19 (pH 7, 50 mM NaCl, 3% trehalose + 3% mannitol); T0
[15] = target: T1, RSV F protein of subtype A comprising a …; assay: AM14 ELISA; F18 (pH 7, 50 mM NaCl, 3% sucrose + 3% mannitol); 2 wk 5°C
[16] = target: T1, RSV F protein of subtype A comprising a …; assay: AM14 ELISA; F18 (pH 7, 50 mM NaCl, 3% sucrose + 3% mannitol); 2 wk 25°C
[17] = target: T1, RSV F protein of subtype A comprising a …; assay: AM14 ELISA; F19 (pH 7, 50 mM NaCl, 3% trehalose + 3% mannitol); 2 wk 25°C

Molecule: AM14 Fab
- Prefusion Content (%) [1]: 71%
- Prefusion Content (%) [2]: 56%
- Prefusion Content (%) [3]: 52%
- Prefusion Content (%) [4]: 71%
- Prefusion Content (%) [5]: 59%
- Prefusion Content (%) [6]: 77%

B1: AM14 (trimeric prefusion specific antibody of the AM14 ELISA) (antibody, V domains shown)
VH: EVQLVESGGGVVQPGRSLRLSCAASGFSFSHYAMHWVRQAPGKGLEWVAVISYDGENTYYADSVKGRFSISRDNSKNTVSLQMNSLRPEDTALYYCARDRIVDDYYYYGMDVWGQGATVTVSS
VL: DIQMTQSPSSLSASVGDRVTITCQASQDIKKYLNWYHQKPGKVPELLMHDASNLETGVPSRFSGRGSGTDFTLTISSLQPEDIGTYYCQQYDNLPPLTFGGGTKVEIKR
notes: Antibody as used in the AM14 ELISA, detected with an HRP-labeled secondary antibody
- AM14 prefusion content (%), relative to standard [7]: 80%
- AM14 prefusion content (%), relative to standard [8]: 65%
- AM14 prefusion content (%), relative to standard [9]: 101%
- AM14 prefusion content (%), relative to standard [10]: 76%
- AM14 prefusion content (%), relative to standard [11]: 60%
- AM14 prefusion content (%), relative to standard [12]: 82%
- AM14 prefusion content (%), relative to standard [13]: 90%
- AM14 prefusion content (%), relative to standard [14]: 93%
- AM14 prefusion content (%), relative to standard [15]: 85%
- AM14 prefusion content (%), relative to standard [16]: 78%
- AM14 prefusion content (%), relative to standard [17]: 84%
